# B1: TDP-43 monomer clone #5 (scFv)
# scFv: MAEVQLLESGGGLVRPGGSLRLSCAASGFTFSSYAMSWVRQAPGKGLEWVSDIANTGDATGYADSVKGRFTISRDNSKNTLYLQMNSLRAEDTAVYYCAKTGAAFDYWGQGTLVTVSSGGGGSGGGGSGGGGSTDIQMTQSPSSLSASVGDRVTITCRASQSISSYLNWYQQKPGKAPKLLIYAASTLQSGVPSRFSGSGSGTDFTLTISSLQPEDFATYYCQQSSSDPATFGQGTKVEIKRAA
# notes: Tested as scFv attached to a phage particle, tagged with a signal moiety when used for detection; also called monomer phage #5
# Molecular target: T1, TDP-43 from healthy human brain tissue (human, UniProt Q13148 1-414)
# T1 construct: also called healthy TDP-43; healthy IP TDP-43
# Assay: phage ELISA on human brain tissue
# T1 sequence (Q13148 whole entry): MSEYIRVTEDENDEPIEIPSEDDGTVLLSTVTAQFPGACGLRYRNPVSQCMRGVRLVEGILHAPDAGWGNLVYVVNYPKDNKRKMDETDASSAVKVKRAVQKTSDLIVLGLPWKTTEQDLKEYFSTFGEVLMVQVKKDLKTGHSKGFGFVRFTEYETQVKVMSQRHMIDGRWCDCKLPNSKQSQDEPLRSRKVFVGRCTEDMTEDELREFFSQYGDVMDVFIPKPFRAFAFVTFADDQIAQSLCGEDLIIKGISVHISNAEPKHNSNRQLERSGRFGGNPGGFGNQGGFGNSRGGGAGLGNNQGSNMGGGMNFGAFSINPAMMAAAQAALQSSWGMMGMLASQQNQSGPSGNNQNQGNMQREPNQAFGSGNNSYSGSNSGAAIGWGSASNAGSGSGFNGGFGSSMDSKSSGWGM
binder,measurement,value
B1,binding result,binds

# Reference: US20260194540A1 (ARIZONA BOARD OF REGENTS ON BEHALF OF ARIZONA STATE …, published 2026)
